Results taken from patent US20250282885A1 (VST BIO, published 2025).

B1: R3-P3-C11 (antibody, human IgG1, kappa, V domains shown)
VH: EVQLVESGGGLVQPGRSLRLACEASGFTFNNYAVHWVRQAPGKGLEWVAVISYDGTNKYYSDSMKGRFTISRDNSKNTLYLQINSLRVEDTAVYFCARGNYVRRDSFDIWGQGTMVTVSS
VL: DIQMTQSPPSLSASVGDRVTITCRASQSISSYLNWYQQKPGKAPKLLIYGASSLQSGVPLRFSGSGSGADFTLTISSLQPEDFATYYCQQSYISPITFGQGTRLEIKR
notes: human IgG1 kappa from the phage campaign
B2: R4M-P3-E06 (antibody, human IgG1, kappa, V domains shown)
VH: EVQLVESGGGVVQPGGSLRLSCAASGFTFSNYGMHWVRQAPGKGLEWVATISYDGTKKYYPDSVRGRFTISRDNSENMLYLQMDSLRLEDTAVIYCAKDLVSGSRYGFAFDSWGPGTLVTVSS
VL: DIVMTQSPLSLPVTLGQPASISCRSSQSLVHSDGNTYLNWFQQRPGQSPRRLIYKVSNRDSGVPDRFSGTGSGTDFTLKISRVEADDVGVYYCMQGTHWPPIFGQGTRLEIKR
notes: as for B1

Assays:
human Sdc2 [1] = target: T1, human Sdc2 (human, UniProt P34741 19-144, limits assumed); assay: Octet tandem binning; saturating Ab m7 19844-R3-P1-E07
T1 construct: Antigen of the Octet tandem binning, loaded on biosensors at 100 nM; also called huSdc2; hSdc2
Experimental: (§1) These studies were performed in a tandem binning assay format with human Sdc2, used as the antigen (concentration of 100 nM). Antigen loaded biosensors were dipped in a saturating solution of antibody (25 μg/ml) for 240 seconds followed by a competing antibody at 5 μg/ml for 180 seconds. […] Since saturation is not possible to achieve saturation with these clones, they are removed in as ligands, but retained in the analyte orientation in the analysis. A table summarizing the results of epitope binning of the 18 antibodies against huSdc2 is illustrated in FIG. 30. Data is normalized, where the raw binding signal from Competing Ab for a given Saturating Ab is divided by binding in the absence a […] (“buffer”). The threshold determining the matrix color is adjustable and dependent upon Ag-Ab binding. […] Table rows are based on similar looking binding profiles. Note that the coloration/cutoff is subjective, yellow color added to represent injections with ambiguous or very weak sandwiching signals. FIG. 31 illustrates a clustergram of the epitope binning studies, which was generated from the normalized binning data by importation into the statistical computing program R (The R Project for Statistical Computing: at r-project.org) and generation of a clustergram with the pvclust package.

human Sdc2 [2] = target: T1, human Sdc2; assay: Octet tandem binning; saturating Ab m1 19838-20H19-AB
Experimental: as §1

human Sdc2 [3] = target: T1, human Sdc2; assay: Octet tandem binning; saturating Ab m5 19844-R4M-P3-A12 (row boxed, self-self >0.09)
Experimental: as §1

pig Sdc2 [4] = target: T2, pig Sdc2 (pig, UniProt F1S0L5 19-145); assay: Octet BLI, HIS1K sensor loaded with pigSdc2, antibody as sample; Full R2 0.9504
T2 construct: also called pSdc2

human Sdc2 [5] = target: T1, human Sdc2; assay: Octet tandem binning; saturating Ab f3 19838-6N03-A
Experimental: as §1

human Sdc2 [6] = target: T1, human Sdc2; assay: Octet tandem binning; saturating Ab f12 19838-6-N03-A
Experimental: as §1

human Sdc2 [7] = target: T1, human Sdc2; assay: Octet BLI, HIS1K sensor loaded with huSdc2, antibody as sample; Full R2 0.9738
human Sdc2 [8] = target: T1, human Sdc2; assay: Octet tandem binning; saturating Ab m4 19844-R4M-P1-A10
Experimental: as §1

human Sdc2 [9] = target: T1, human Sdc2; assay: Octet tandem binning; saturating Ab f10 19838-10-I12-A
Experimental: as §1

human Sdc2 [10] = target: T1, human Sdc2; assay: Octet tandem binning; saturating Ab f11 19838-20-H19-A
Experimental: as §1

human Sdc2 [11] = target: T1, human Sdc2; assay: Octet tandem binning; saturating Ab m2 19838-8G17-A
Experimental: as §1

human Sdc2 [12] = target: T1, human Sdc2; assay: Octet tandem binning; saturating Ab m3 19844-R3-P1-C02 (row boxed, self-self >0.09)
Experimental: as §1

human Sdc2 [13] = target: T1, human Sdc2; assay: Octet tandem binning; saturating Ab f6 19844-R3-P3-E09
Experimental: as §1

human Sdc2 [14] = target: T1, human Sdc2; assay: Octet tandem binning; saturating Ab f8 19844-R4M-P2-C02
Experimental: as §1

human Sdc2 [15] = target: T1, human Sdc2; assay: Octet tandem binning; saturating Ab m8 19844-R4M-P1-B01 (marked non-binding ligand)
Experimental: as §1

[16] = target: human Sdc2 on Human Umbilical Vein Endothelial Cells (HUVEC) (human, UniProt P34741 19-201); assay: cell-based or functional assay
human Sdc2 [17] = target: T1, human Sdc2; assay: Octet tandem binning; Buffer in place of a saturating Ab
Experimental: as §1

pig Sdc2 [18] = target: T2, pig Sdc2; assay: Octet BLI, heading box over the sensorgram
human Sdc2 [19] = target: T1, human Sdc2; assay: Octet BLI, heading box over the sensorgram
human Sdc2 [20] = target: T1, human Sdc2; assay: Kd (human Sdc2), summary table of the mAbs
human Sdc2 [21] = target: T1, human Sdc2; assay: Octet tandem binning; saturating Ab f5 19844-R4M-P3-E06
Experimental: as §1

human Sdc2 [22] = target: T1, human Sdc2; assay: Octet tandem binning; saturating Ab f9 19838-6-E17-A
Experimental: as §1

human Sdc2 [23] = target: T1, human Sdc2; assay: Octet tandem binning; saturating Ab m6 19838-20H19-AA (marked non-binding ligand)
Experimental: as §1

human Sdc2 [24] = target: T1, human Sdc2; assay: Octet tandem binning; saturating Ab f7 19844-R3-P3-A12
Experimental: as §1

human Sdc2 [25] = target: T1, human Sdc2; assay: Octet BLI, AHC sensor loaded with the antibody, huSdc2 as sample; Full R2 0.9525
Experimental: In order to characterize the binding affinity and in vivo/in vitro functional ability of the twelve clones generated by the previous studies and disclosed in Table 1, a series of assays were performed on each clone. These assays measured the affinity of each antibody clone for human, pig, and mouse Sdc2 using an Octet® binding assay system. Additionally, the functional ability of each clone to inhibit VEGFA-driven permeability (see Santiago, et al. (2021) J Am Heart Assoc. 10(18):e020521) was assessed in two therapeutic settings: a “prevention” study in which three concentrations of antibody (5 μg/ml, 10 μg/ml, 15 μg/ml, 20 μg/ml, and/or 40 μg/ml depending on the study) were pre-incubated for an hour before administration of 100 ng/ml of VEGFA, and a “treatment” study in which 3 hours of pre-treatment with 100 ng/ml VEGFA were followed by treatment with antibody at 20 μg/ml or 40 μg/ml. Results are shown for 8-G17 in FIG. 8 and FIG. 9, 20-H19-AB in FIG. 10 and FIG. 11 (FIG. 12 for monkey ECs), R3-P3-C11 in FIG. 13 and FIG. 14, R4M-P3-E06 in FIG. 15 and FIG. 16, R3-P3-E09 in FIG. 17 and FIG. 18, R3-P1-C02 in FIG. 19 and FIG. 20, R3-P3-A12 in FIG. 21 and FIG. 22, R4M-P3-A12 in FIG. 23 and FIG. 24, and R4M-P1-A10 in FIG. 25 and FIG. 26.

human Sdc2 [26] = target: T1, human Sdc2; assay: Octet BLI, heading box over the sensorgram; remark: listed apart in the source
human Sdc2 [27] = target: T1, human Sdc2; assay: Octet BLI, AHC sensor loaded with the antibody, huSdc2 as sample (curves huSdc2, 2000 and 1000, unit inferred); Full R2 0.9525
human Sdc2 [28] = target: T1, human Sdc2; assay: Octet tandem binning; saturating Ab f4 19844-R3-P3-C11
Experimental: as §1

T1 sequence (P34741 19-144 limits assumed): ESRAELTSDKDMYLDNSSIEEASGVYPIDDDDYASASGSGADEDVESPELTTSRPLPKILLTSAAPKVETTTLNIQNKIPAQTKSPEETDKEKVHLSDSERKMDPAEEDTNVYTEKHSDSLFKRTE
Chain of human Sdc2 on Human Umbilical Vein Endothelial Cells (HUVEC) (P34741 19-201 limits assumed): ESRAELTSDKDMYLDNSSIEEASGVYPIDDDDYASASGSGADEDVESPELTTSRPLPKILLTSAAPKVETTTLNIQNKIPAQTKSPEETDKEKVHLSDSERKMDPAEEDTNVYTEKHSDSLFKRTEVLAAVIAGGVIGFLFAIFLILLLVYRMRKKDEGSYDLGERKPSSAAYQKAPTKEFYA

Row | Binder | raw competing-Ab binding signal (human Sdc2 [1]) | raw competing-Ab binding signal (human Sdc2 [2]) | raw competing-Ab binding signal (human Sdc2 [3]) | raw competing-Ab binding signal (human Sdc2 [5]) | raw competing-Ab binding signal (human Sdc2 [6]) | raw competing-Ab binding signal (human Sdc2 [8]) | raw competing-Ab binding signal (human Sdc2 [9]) | raw competing-Ab binding signal (human Sdc2 [10]) | raw competing-Ab binding signal (human Sdc2 [11]) | raw competing-Ab binding signal (human Sdc2 [12]) | raw competing-Ab binding signal (human Sdc2 [13]) | raw competing-Ab binding signal (human Sdc2 [14]) | raw competing-Ab binding signal (human Sdc2 [15]) | % Inhibition of VEGFA-induced permeability at 24hrs (20ug/ml) [16] | raw competing-Ab binding signal (human Sdc2 [17]) | Kd (human Sdc2 [20]) | raw competing-Ab binding signal (human Sdc2 [22]) | raw competing-Ab binding signal (human Sdc2 [23]) | raw competing-Ab binding signal (human Sdc2 [24]) | further results
1 | B1 | 0.573 | 0.569 | 0.562 | 0.645 | 0.697 | 0.518 | 0.351 | 0.585 | 0.629 | 0.491 | 0.299 | 0.479 | 0.576 | 100% | 0.523 | 2.26 nM | 0.542 | 0.593 | -0.0267 | Kd (pig Sdc2 [4]): 10.2 nM; koff (pig Sdc2 [4]): 0.0417 s⁻¹; kon (pig Sdc2 [4]): 4.1e+06 M⁻¹ s⁻¹; Kd (human Sdc2 [7]): 2.26 nM; koff (human Sdc2 [7]): 0.00304 s⁻¹; kon (human Sdc2 [7]): 1.34e+06 M⁻¹ s⁻¹; Kd (pig Sdc2 [18]): ~10.2 nM; Kd (human Sdc2 [19]): ~2.26 nM; raw competing-Ab binding signal (human Sdc2 [21]): 0.61
2 | B2 | 0.247 | 0.284 | 0.223 | 0.209 | 0.252 | 0.116 | 0.241 | 0.311 | 0.183 | 0.0913 | 0.025 | 0.0709 | 0.25 | 95% | 0.256 | 448 nM | 0.231 | 0.251 | 0.0799 | koff (human Sdc2 [25]): 0.041 s⁻¹; kon (human Sdc2 [25]): 84000 M⁻¹ s⁻¹; Kd (human Sdc2 [26]): ~480 nM; Kd (human Sdc2 [27]): 488 nM; raw competing-Ab binding signal (human Sdc2 [28]): 0.0598
